These are literature values, as cited in PMC5487894.

For orientation: Kd means the free concentration of one partner at which half of the binding sites on the other are occupied at equilibrium, for simple one-to-one binding.

Where two headings read alike, the source gives them in different places.

For one series, the target named is Rab5 (Homo sapiens) (UniProt P20339).
The target in series [1] is CDC12 20-40 (Schizosaccharomyces pombe) (UniProt Q10059).
Series [2] deals with Rac (Homo sapiens) (UniProt P63000).
For series [3] the target is unchanged. The source holds these as a separate data set.

Chain of UniProt P20339 (P20339 whole entry): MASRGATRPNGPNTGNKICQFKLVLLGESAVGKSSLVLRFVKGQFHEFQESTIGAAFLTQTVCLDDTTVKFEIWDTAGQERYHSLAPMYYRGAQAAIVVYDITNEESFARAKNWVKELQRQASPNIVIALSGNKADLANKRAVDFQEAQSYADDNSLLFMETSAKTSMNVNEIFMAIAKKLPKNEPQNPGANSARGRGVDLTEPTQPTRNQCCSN
Chain of UniProt Q10059 (Q10059 20-40): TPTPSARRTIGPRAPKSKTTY

With APPL1 BAR-PH (from UniProt Q9UKG1), the Kd with Rab5 (Homo sapiens) is 0.9 µM.
As to CDC15 F-BAR (from UniProt Q09822), the Kd in series [1] was 0.002 µM.
For the substance IRSp53 RCB domain (from UniProt Q9UQB8), the Kd with Rac (Homo sapiens) [2] was 20 µM; with Rac (Homo sapiens) [3], 3 µM.
